These results are taken from patent publication US20190031761A1.

The target of assay [1] is EGFRvIII recombinant protein (rhEGFRvIII protein) used in ELISA (human) (UniProt P00533). Nature of the assay: concentration-dependent ELISA in triplicate, Prism nonlinear regression (apparent affinity). On the technique in general: ELISA stands for enzyme-linked immunosorbent assay.
Assay [2] deals with T1, EGFRvIII-specific peptide (…).
T1 sequence (peptide): LEEKKGNYVVTDHC
Described as above.

B1: B4A3 scFv protein (anti-EGFRvIII scFv) (scFv, part only; not given: scFv linker, domain order, tags, V domains shown, not shown: another chain or arm of the molecule; small tags and cut ends)
VH: EVQLLESGGGLVQPGGSLRLSCAASGFTFSNYYMSWVRQAPGKGLEWVSGTSPNGGSKYYADSVKGRFTISRDNSKNTLYLQMNSLRAEDTAVYYCAKGRRKLRATRFDYWGQGTLVTVSS
VL: QSVLTQPPSASGTPGQRVTISCTGSSSNIGNNYVSWYQQHPGTAPKLLIYSDSNRPSGVPDRFSGSKSGTSASLAISGLRSEDEADYYCATWDASLSAYVFGGGTKLTVL
Regarding B1, the Kd in assay [1] was 2.35 nM; in assay [2], 0.272 nM.
